Results on 5 molecules are retold here after paper PMC12507517, “Teamwork of clustered low-affinity κB sites and accessory factors regulates transcriptional strength of NF-κB RelA dimers”.

For data set [1], the target named is T1, RelA homodimer (UniProt Q04206 1-551). The data set is described as follows: EMSA; EMSA: 10 mM Tris-HCl pH 7.5, 50 mM NaCl, 10% glycerol, 1% NP-40, 1 mM EDTA, 0.1 mg/mL salmon sperm DNA, room temp; BLI: 25 mM Tris-HCl pH 7.5, 150 mM NaCl, 0.02% Tween 20, 0.1 mg/mL salmon sperm DNA, 1 mM DTT. The conditions noted are these: protein: recombinant; tags: His; chain copies: 2; label: 32P. (Mobility shift assays separate free from complexed probe on a gel.)

Data set [2] has as its target T2, Nfatc1 (affinity-purified) (UniProt O95644 1-698).
T2 sequence: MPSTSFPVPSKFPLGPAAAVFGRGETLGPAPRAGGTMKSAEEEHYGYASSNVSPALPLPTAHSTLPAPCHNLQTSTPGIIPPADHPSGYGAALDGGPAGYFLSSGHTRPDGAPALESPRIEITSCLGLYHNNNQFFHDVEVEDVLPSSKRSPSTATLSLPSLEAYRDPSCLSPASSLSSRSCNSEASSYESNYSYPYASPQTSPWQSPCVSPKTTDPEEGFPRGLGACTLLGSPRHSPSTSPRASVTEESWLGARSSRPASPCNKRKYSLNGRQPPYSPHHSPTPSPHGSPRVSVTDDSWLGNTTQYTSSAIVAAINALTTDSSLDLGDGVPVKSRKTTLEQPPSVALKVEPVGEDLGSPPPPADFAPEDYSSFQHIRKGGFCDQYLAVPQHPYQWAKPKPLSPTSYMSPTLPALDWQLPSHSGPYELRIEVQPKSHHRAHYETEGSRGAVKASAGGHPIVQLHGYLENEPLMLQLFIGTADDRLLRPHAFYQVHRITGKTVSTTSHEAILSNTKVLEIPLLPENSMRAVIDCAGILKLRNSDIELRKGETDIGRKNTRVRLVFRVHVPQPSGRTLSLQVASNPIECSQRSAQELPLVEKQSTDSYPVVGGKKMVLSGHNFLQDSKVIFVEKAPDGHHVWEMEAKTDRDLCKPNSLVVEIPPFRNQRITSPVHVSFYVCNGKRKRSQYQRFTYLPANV
Described as above. The conditions noted are these: protein: recombinant; label: 32P.

Data set [3] concerns the target T3, p50:RelA heterodimer, RelA chain;p50:RelA heterodimer, p50 chain (;, UniProt Q04206;P19838 1-551;1-435, |). The data set is described as above. The conditions noted are these: protein: recombinant;recombinant; tags: His;His; copies: 1;1; label: 32P.
Data set [4] concerns the target T4, Tead3 (affinity-purified) (UniProt Q99594 1-435). The description is as above. The following applies: protein: recombinant; label: 32P.
Data set [5] addresses T4, Tead3 (affinity-purified). The data set is described as follows: EMSA; strong site only; EMSA: 10 mM Tris-HCl pH 7.5, 50 mM NaCl, 10% glycerol, 1% NP-40, 1 mM EDTA, 0.1 mg/mL salmon sperm DNA, room temp; BLI: 25 mM Tris-HCl pH 7.5, 150 mM NaCl, 0.02% Tween 20, 0.1 mg/mL salmon sperm DNA, 1 mM DTT. The conditions noted are these: protein: recombinant; label: 32P.
In data set [6] the target is T1, RelA homodimer. The data set is described as follows: EMSA; no discernible effect of mutation; EMSA: 10 mM Tris-HCl pH 7.5, 50 mM NaCl, 10% glycerol, 1% NP-40, 1 mM EDTA, 0.1 mg/mL salmon sperm DNA, room temp; BLI: 25 mM Tris-HCl pH 7.5, 150 mM NaCl, 0.02% Tween 20, 0.1 mg/mL salmon sperm DNA, 1 mM DTT. The conditions noted are these: protein: recombinant; tags: His; chain copies: 2; label: 32P.

For data set [7], the target named is T3, p50:RelA heterodimer, RelA …. The data set is described as above. The conditions noted are these: protein: recombinant;recombinant; tags: His;His; copies: 1;1; label: 32P.
Data set [8] has as its target T1, RelA homodimer. The data set is described as follows: EMSA; binding retained; EMSA: 10 mM Tris-HCl pH 7.5, 50 mM NaCl, 10% glycerol, 1% NP-40, 1 mM EDTA, 0.1 mg/mL salmon sperm DNA, room temp; BLI: 25 mM Tris-HCl pH 7.5, 150 mM NaCl, 0.02% Tween 20, 0.1 mg/mL salmon sperm DNA, 1 mM DTT. The conditions noted are these: protein: recombinant; tags: His; chain copies: 2; label: 32P.

In data set [9] the target is T3, p50:RelA heterodimer, RelA …. The description is as above. The conditions noted are these: protein: recombinant;recombinant; tags: His;His; copies: 1;1; label: 32P.
Data set [10] has as its target T4, Tead3 (affinity-purified). The data set is described as follows: EMSA; weak site only; EMSA: 10 mM Tris-HCl pH 7.5, 50 mM NaCl, 10% glycerol, 1% NP-40, 1 mM EDTA, 0.1 mg/mL salmon sperm DNA, room temp; BLI: 25 mM Tris-HCl pH 7.5, 150 mM NaCl, 0.02% Tween 20, 0.1 mg/mL salmon sperm DNA, 1 mM DTT. The following applies: protein: recombinant; label: 32P.
Another data set concerns the target T5, Nfat5 RHR mutant (UniProt O94916 264-544, R295S;Y296S).
T5 sequence: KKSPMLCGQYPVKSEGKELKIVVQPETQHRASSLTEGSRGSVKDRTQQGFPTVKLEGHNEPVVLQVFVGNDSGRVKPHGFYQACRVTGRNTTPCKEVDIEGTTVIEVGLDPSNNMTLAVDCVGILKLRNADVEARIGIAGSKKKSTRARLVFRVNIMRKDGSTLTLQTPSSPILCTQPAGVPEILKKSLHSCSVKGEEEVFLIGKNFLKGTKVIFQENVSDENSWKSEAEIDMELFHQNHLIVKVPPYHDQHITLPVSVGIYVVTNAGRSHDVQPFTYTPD
The data set is described as follows: EMSA; no observable binding; EMSA: 10 mM Tris-HCl pH 7.5, 50 mM NaCl, 10% glycerol, 1% NP-40, 1 mM EDTA, 0.1 mg/mL salmon sperm DNA, room temp; BLI: 25 mM Tris-HCl pH 7.5, 150 mM NaCl, 0.02% Tween 20, 0.1 mg/mL salmon sperm DNA, 1 mM DTT. The conditions noted are these: protein: recombinant; chain copies: 2; label: 32P.

The next data set concerns the target T6, Nfat5 RHR WT (UniProt O94916 264-544).
T6 sequence: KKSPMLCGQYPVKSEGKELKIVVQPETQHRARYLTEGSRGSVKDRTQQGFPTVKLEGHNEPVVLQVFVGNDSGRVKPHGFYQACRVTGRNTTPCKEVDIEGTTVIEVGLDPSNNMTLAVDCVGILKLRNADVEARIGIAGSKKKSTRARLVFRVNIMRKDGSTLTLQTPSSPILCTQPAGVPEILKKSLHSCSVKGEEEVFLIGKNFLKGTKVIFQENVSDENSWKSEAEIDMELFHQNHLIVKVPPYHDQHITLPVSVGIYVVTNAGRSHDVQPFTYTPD
Described as above. The conditions noted are these: protein: recombinant; chain copies: 2; label: 32P.

T4 sequence (Q99594 whole entry): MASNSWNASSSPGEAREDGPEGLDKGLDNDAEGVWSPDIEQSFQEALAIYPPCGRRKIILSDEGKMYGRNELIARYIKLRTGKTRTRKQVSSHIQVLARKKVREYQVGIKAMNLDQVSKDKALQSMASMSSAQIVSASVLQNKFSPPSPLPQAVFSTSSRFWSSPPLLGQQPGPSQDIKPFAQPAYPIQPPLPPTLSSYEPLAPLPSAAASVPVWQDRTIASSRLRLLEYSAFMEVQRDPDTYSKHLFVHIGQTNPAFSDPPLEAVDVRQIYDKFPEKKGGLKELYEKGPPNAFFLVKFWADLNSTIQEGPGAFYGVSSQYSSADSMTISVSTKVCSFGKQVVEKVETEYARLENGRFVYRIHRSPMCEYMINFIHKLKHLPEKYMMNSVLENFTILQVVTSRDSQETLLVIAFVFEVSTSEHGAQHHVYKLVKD
T3 sequence (Q04206 whole entry, chain 1 of 2): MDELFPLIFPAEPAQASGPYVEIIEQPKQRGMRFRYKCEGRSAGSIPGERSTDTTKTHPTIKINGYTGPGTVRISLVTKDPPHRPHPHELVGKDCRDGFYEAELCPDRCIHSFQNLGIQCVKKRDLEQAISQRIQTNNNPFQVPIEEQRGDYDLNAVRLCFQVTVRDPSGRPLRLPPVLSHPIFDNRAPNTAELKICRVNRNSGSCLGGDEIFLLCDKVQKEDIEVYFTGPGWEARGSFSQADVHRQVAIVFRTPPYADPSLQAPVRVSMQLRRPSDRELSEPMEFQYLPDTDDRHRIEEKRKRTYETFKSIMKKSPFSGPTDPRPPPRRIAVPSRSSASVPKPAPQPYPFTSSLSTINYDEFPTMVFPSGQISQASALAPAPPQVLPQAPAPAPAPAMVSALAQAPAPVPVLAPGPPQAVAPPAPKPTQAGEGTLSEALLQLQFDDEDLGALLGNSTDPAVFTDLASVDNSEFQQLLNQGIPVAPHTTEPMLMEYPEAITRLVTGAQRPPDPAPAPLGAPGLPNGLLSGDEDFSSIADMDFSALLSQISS
T3 sequence (P19838 1-435, chain 2 of 2): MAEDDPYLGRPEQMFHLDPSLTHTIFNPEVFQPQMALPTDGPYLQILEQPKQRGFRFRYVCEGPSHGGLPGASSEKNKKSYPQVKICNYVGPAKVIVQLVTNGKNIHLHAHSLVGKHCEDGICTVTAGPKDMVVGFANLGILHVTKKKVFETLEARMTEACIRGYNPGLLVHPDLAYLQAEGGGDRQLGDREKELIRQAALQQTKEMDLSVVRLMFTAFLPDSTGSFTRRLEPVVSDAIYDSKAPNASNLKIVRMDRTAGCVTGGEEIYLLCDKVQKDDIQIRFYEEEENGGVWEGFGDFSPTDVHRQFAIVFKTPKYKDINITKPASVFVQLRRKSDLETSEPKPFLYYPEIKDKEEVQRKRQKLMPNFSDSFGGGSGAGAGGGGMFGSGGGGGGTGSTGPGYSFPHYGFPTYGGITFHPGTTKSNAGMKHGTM
T1 sequence (Q04206 whole entry): as the sequence (Q04206 whole entry, chain 1 of 2) above

B1: 2DM Cxcl2 probe (both sites mutated) (dsDNA)
DNA 1: TCGACATGAGGGGACCCTGAGCTCAGCTAATTTGACTGGTCCCCGGGCTTTTGGAG
DNA 2: CTCCAAAAGCCCGGGGACCAGTCAAATTAGCTGAGCTCAGGGTCCCCTCATGTCGA
As for B1, the binding result (in the data set with RelA homodimer [1]; in data set [2]; in data set [3]; in data set [4]) was “no binding” throughout.

B2: 2WT Cxcl2 probe (dsDNA)
DNA 1: TCGACATGAGGGGACCCTGAGCTCAGGGAATTTCCCTGGTCCCCGGGCTTTTCCAG
DNA 2: CTGGAAAAGCCCGGGGACCAGGGAAATTCCCTGAGCTCAGGGTCCCCTCATGTCGA
Regarding B2, the binding result in data set [2] and in data set [4] was “binds” each time.

B3: 2ΔW Cxcl2 probe (weak site mutated) (dsDNA)
DNA 1: TCGACATGAGGGGACCCTGAGCTCAGGGAATTTCCCTGGTCCCCGGGCTTTTGGAG
DNA 2: CTCCAAAAGCCCGGGGACCAGGGAAATTCCCTGAGCTCAGGGTCCCCTCATGTCGA
On to B3, for which the binding result (in data set [5]; in data set [2]; in the data set with RelA homodimer [6]; in data set [7]) was “binds” each time.

B4: 2ΔS Cxcl2 probe (strong site mutated) (dsDNA)
DNA 1: TCGACATGAGGGGACCCTGAGCTCAGCTAATTTGACTGGTCCCCGGGCTTTTCCAG
DNA 2: CTGGAAAAGCCCGGGGACCAGTCAAATTAGCTGAGCTCAGGGTCCCCTCATGTCGA
Regarding B4, the binding result is “binds” with RelA homodimer [8], “binds” in data set [9], “binds” in [2] and “no binding” in data set [10].

B5: Nfat EMSA probe (dsDNA)
DNA 1: TCGACATGAGGGGACCCTGAGCTCAGGGAATTTCCCTGGTCCCCGGGCTTTTCCAG
DNA 2: CTGGAAAAGCCCGGGGACCAGGGAAATTCCCTGAGCTCAGGGTCCCCTCATGTCGA
Turning to B5, the binding result with Nfat5 RHR mutant and with Nfat5 RHR WT was “no binding” throughout.
